The target in assay [1] is T1, mouse PD1 (mPD1) (mouse, UniProt Q02242 25-288).
T1 construct: whole, on cells; also called murine PD1
T1 sequence (looked up): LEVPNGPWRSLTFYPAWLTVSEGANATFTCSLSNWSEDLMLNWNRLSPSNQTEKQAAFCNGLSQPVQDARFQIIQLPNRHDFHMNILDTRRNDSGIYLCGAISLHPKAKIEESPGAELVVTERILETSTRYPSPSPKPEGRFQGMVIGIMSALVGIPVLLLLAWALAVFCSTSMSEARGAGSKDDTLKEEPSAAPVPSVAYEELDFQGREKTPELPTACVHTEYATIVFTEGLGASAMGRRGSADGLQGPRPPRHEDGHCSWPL
The experiment in a line: flow cytometry on Jurkat/mPD1 cells. The method, then:
Cells (HEK 293, MC38 over-expressing mCD20, or Jurkat over-expressing mPD1) were resuspended in FACS wash (PBS with 1% FBS) at 1×10⁶ cells/mL. The staining was performed in 1×10⁵ cells per well. The antibodies were diluted with a ratio of 1:5 from a starting concentration of 1.3×10⁻⁰⁷ M. The diluted antibodies were then added into the wells containing cells. Cells were stained for 30 min at 2-8° C. and washed twice with FACS wash buffer. APC-conjugated goat anti-human IgG (Jackson Immuno Research, 109-607-003, 1:400) or AF647-conjugated goat anti-mFc Fab (Jackson Immuno Research, 115-607-185, 1:400) was added to stain the cells for 30 min at 2-8° C. Following washing, cells were fixed in 2% paraformaldehyde for 30 min at 2-8° C. After two washes, stained cells were analyzed using BD LSRFortessa™ FACS instrument. The results were analyzed by FlowJo. FSC/SSC gates were used to select mononuclear cells.
In general terms: A flow cytometer gives signals particle by particle.

For assay [2], the target named is T1, mouse PD1 (mPD1). In words: cell-based or functional assay.

Where a chain is given by its changes, count along the chain named.

B1: 18B12-scFvFc (scFv, V domains shown)
VH: QVQLQQPGAELVRPGTSVKLSCKASGYTFTSYWMHWIKQRPGQGLEWIGVIDPSDNYTKYNQKFKGKATLTVDTSSSTAYMQLSSLTSEDSAVYFCAREGYYGSSPWFAYWGQGTLVTVSS
VL: QIVMSQSPAILSASPGEKVTMTCRARSSVSYIHWYQQKPGSSPKPWIYATSNLASGVPGRFSGSGSGTSYSLTITRVEAEDAATYYCQQWSSKPPTFGGGTKLEIK
As to B1, the binding result with mouse PD1 (mPD1) [1] is on record as “no binding”.

B2: 1B12IgG1EN (antibody)
heavy 1: QVQLQQPGAELVRPGTSVKLSCKASGYTFTSYWMHWIKQRPGQGLEWIGVIDPSDNYTKYNQKFKGKATLTVDTSSSTAYMQLSSLTSEDSAVYFCAREGYYGSSPWFAYWGQGTLVTVSSASTKGPSVFPLAPSSKSTSGGTAALGCLVKDYFPEPVTVSWNSGALTSGVHTFPAVLQSSGLYSLSSVVTVPSSSLGTQTYICNVNHKPSNTKVDKKVEPKSCDKTHTCPPCPAPEAEGAPSVFLFPPKPKDTLMISRTPEVTCVVVDVSHEDPEVKFNWYVDGVEVHNAKTKPREEQYNSTYRVVSVLTVLHQDWLNGKEYKCKVSNKALPSSIEKTISKAKGQPREPQVYTLPPCRDELTKNQVSLWCLVKGFYPSDIAVEWESNGQPENNYKTTPPVLDSDGSFFLYSKLTVDKSRWQQGNVFSCSVMHEALHNHYTQKSLSLSPGK
heavy 2: B2 heavy 1 with Y353C, C358S, W370S, L372A, Y411V, H439R, Y440F
light: QIVMSQSPAILSASPGEKVTMTCRARSSVSYIHWYQQKPGSSPKPWIYATSNLASGVPGRFSGSGSGTSYSLTITRVEAEDAATYYCQQWSSKPPTFGGGTKLEIKRTVAAPSVFIFPPSDEQLKSGTASVVCLLNNFYPREAKVQWKVDNALQSGNSQESVTEQDSKDSTYSLSSTLTLSKADYEKHKVYACEVTHQGLSSPVTKSFNRGEC
notes: IgG, mCD20 x mCD20, 145.3 kDa; also called Molecule ID M
For the molecule B2, the binding result in the assay with mouse PD1 (mPD1) [1] is given as “no binding”. Also, the “Max % inhibition, luciferase bioassay, 1 nM CD3 bsAb” value in the assay with mouse PD1 (mPD1) [2] is 19%.

For the origin of these results see patent US20240400687A1 (Regeneron, published 2024).
